Results published in the supplement of paper PMC11865577.

How the values were obtained:
Assay in all cases: pull-down binding Z-score (relative to library population); higher = stronger binding
[1] = system: G-clamp-N3 (biotin conjugate); conditions: RNA library: Library-1 (pre-miRNA loops + repeats)
Summary of the method: (§1)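 A heat-folded, dye-end-labelled (Cy5 or Cy3) RNA library (1 μg, phosphate/NaCl/KCl buffer) was exposed for 60 min at 25 °C to streptavidin beads holding 100 pmol of biotin-conjugated small molecule. RNA retained on the beads was eluted in hot SDS and hybridised to a DNA barcode microarray for 20 h at 55.5 °C. Binding scores were Z-scores against the library mean and standard deviation, calculated after subtracting beads alone and taking trimmed means of replicate probes.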

[2] = system: TO-3-N3 (biotin conjugate); conditions: RNA library: Library-2
Summary of the method: as §1

[3] = system: TO-N3-2 (biotin conjugate); conditions: RNA library: Library-2
Summary of the method: as §1

[4] = system: TO-3-N3-2 (biotin conjugate); conditions: RNA library: Library-2
Summary of the method: as §1

TO-N3 (biotin conjugate) = conditions: RNA library: Library-2
Summary of the method: as §1

Sequence	pull-down binding Z-score [1]	pull-down binding Z-score [2]	pull-down binding Z-score [3]	pull-down binding Z-score [4]	pull-down binding Z-score (TO-N3 (biotin conjugate))
UUAUGUUUCUGAUCCGAAUAUAA [hsa-mir-208b]	0.538	-0.229	-0.679	-0.345	-0.483
GGGGGCAGGCAGGGGAUUGGCUAAGAACCUGACUCUUGC [hsa-mir-7703]	-0.0197	2.18	1.75	1.44	2.48
UGUGUGCUGAGAAAAUUCACACA [hsa-mir-5580]	-0.421	0.00215	-0.274	0.149	-0.125
CUUUGGUGGCUAUGGUUGACUGGGCCACUCAGAG [hsa-mir-4468]	2.29	-0.366	0.846	-0.332	-0.123
CAAAGACCAGAACUUAAUGGUCUCUG [hsa-mir-4490]	0.704	-0.471	-1.15	-0.671	-0.888
CACACUGGUGAGGUAACAGGAUCCGGUG [hsa-mir-182]	0.926	0.159	0.691	0.0141	0.38
AACAACAGCAUCAGAAGCAACAUCAGCUUUAGUU [hsa-mir-569]	-1.03	0.728	1	0.364	0.9
CACAAUAUUUAGGACAACAAUAUU [hsa-mir-1302-6]	-0.807	-0.282	-0.518	0.226	-0.362
UGGUGGGGGCCGGGGCAGGCCCAGCGAAA [hsa-mir-648]	1.1	1.96	1.94	1.37	2.27
CUUACUGUACACGUGGCUGGCAAG [hsa-mir-4428]	-0.412	-0.0149	1.09	0.108	0.588
CACAGAGUAAGCAUCAAUAGCAUUGGCAAGUUGAACUGAGCUGUC [hsa-mir-6895]	-0.438	-0.393	1.37	-0.0293	0.466
CGAUAAACCCCUAAAUAGGGACUUUCCCG [hsa-mir-484]	-0.934	-0.473	-0.157	-0.266	-0.511
CCUGUUUGAAUAUUUCACCAGAAACAGG [hsa-mir-4433b]	1.2	-0.311	-0.74	-0.044	-0.402
UCUGCUUUGAUGAAAUAAAGCAGA [hsa-mir-4773-2]	-0.541	-0.145	-1.05	-0.423	-0.206
UUUGUGGAUUUUGAAAAGGUGCAGG [hsa-mir-15a]	1.81	-0.119	0.28	0.66	0.277
GGCGCACAGCAGACCCUGCAAUCAUGCC [hsa-mir-3164]	0.000458	0.966	0.621	0.119	1.03
GACACCUGGAUUCAGAGAACAUGUC [hsa-mir-1276]	-0.716	-0.322	0.137	-0.0538	-0.156
GCUCUAAUAAUUUAUUCUAAUAAUAAUUUAGAUC [hsa-mir-7976]	-0.269	-0.976	-1.31	-0.379	-1.19
ACCAUAUCUAAGCUAAUGUGGUGGU [hsa-mir-876]	0.651	-0.157	-0.259	0.00992	-0.139
AAGGCCCUUGGGCACCCCAGGCCUU [hsa-mir-5700]	-1.26	0.259	0.656	-0.081	0.181
GGGAGCAUGAACAAUGUUUCUCACUCCC [hsa-mir-3162]	1.01	0.186	1.13	-0.49	0.299
UUUGUCAUUACUUUAAUUACUUUACGUUUCAUUAAUGACAAA [hsa-mir-548h-4]	-0.754	-1.23	-1.46	-0.563	-1.43
CUAAGCUAUGGACUGCUAUGGACUGCUAG [hsa-mir-4473]	-0.249	-0.193	0.578	0.196	0.172
UCUUCCCAGAAUUGGGAAAA [hsa-mir-320c-2]	-0.574	-0.813	-1.68	-0.72	-1.33
AUUUCCCAAAGUUGGGAAAA [hsa-mir-320b-2]	-1.23	0.0303	-1.08	-0.231	-0.432

Sequence	pull-down binding Z-score [1]	pull-down binding Z-score [2]	pull-down binding Z-score [3]	pull-down binding Z-score [4]	pull-down binding Z-score (TO-N3 (biotin conjugate))
GCGGCCGCGCUGGCCGCU [hsa-mir-3665]	1.02	-0.0786	0.524	-0.548	-0.0622
GUUGGCUCAAGAAAGGGAGAUAGAUGGUAGCCC [hsa-mir-6884]	0.473	1.71	3.94	1.51	1.94
AUAGUUUGGGGCUCUGCCCUGCUAUGGGAUAACUAU [hsa-let-7a-3]	0.889	-0.227	0.141	-0.115	-0.227
UUGUGUCCAUCAUGCAACAA [hsa-mir-802]	-1.17	-0.49	0.396	-0.248	-0.144
GGAAGACACAUGAGCAGUGCCUCCACUUCACGCCUCUCCC [hsa-mir-6780b]	-1.13	0.265	0.746	0.0363	0.543
UAAUAUGCACUAUAAAUAUAUUG [hsa-mir-450a-1]	-0.725	-0.774	-1.33	-0.431	-1.16
UGUGGUGGGUGGUGGCCUGCGGUGAGCAGGGCCCUCA [hsa-mir-1228]	0.921	1.6	2.1	1.08	2.36
AAGACACUAUCUGACAACAACAGGGCUCUU [hsa-mir-550b-2]	0.0423	0.681	0.234	0.201	0.93
UUACCCAACGUCUCUGAGUCUCGGUUUUGAGAGGGUGAGUAA [hsa-mir-7973-1]	0.981	0.0875	0.29	-0.0539	0.268
UAGACAAUGGUUUCAUCAUUUCGUCUG [hsa-mir-4427]	-0.055	-0.317	-0.052	-0.103	-0.379
GAUUCGCUUUACUUAUGACGAAUC [hsa-mir-382]	-0.449	-0.268	-0.716	-0.107	-0.424
AACAUACAUUUGUCUUGGUGUGUU [hsa-mir-4684]	3.35	-1.01	-1.35	-0.744	-1.44
UUUGUUGAAAGAAUAAAUAAACCAACAAG [hsa-mir-1264]	-0.724	-0.424	-0.365	0.0773	-0.367
UUGAAUCACACACACAUUUCAA [hsa-mir-4803]	-0.451	-0.208	-0.644	-0.154	-0.366
UGGACCUCAGGGAAGAGGCUG [hsa-mir-4673]	0.343	-0.608	-0.855	-0.191	-0.619
ACACACACCAGACUAUGGAAGCCAGUGU [hsa-mir-147a]	-0.656	-0.455	0.0135	-0.471	-0.528
GUAUGAGUGCCACAGAGCCGUCAUAA [hsa-mir-9-3]	-0.99	0.938	1.73	-0.231	1.39
GGGCCAUGUCUGUGAGGGCCCA [hsa-mir-4294]	3.2	-0.261	0.936	0.0026	0.221
GAAAUGUGUGGAAGAUGGCAUUUC [hsa-mir-4482]	2.74	-0.346	0.278	-0.00894	-0.302
GGAUUUGCUUCCUGUCACAAAUCA [hsa-mir-23a]	-1.51	0.391	-0.188	-0.241	0.271
GGAGCCCGAGCAGCCGCGGUGAA [hsa-mir-7706]	-1.54	1.29	2.55	0.551	2.17
AUAGUUUUAGGGCAGGGAUUUUGCCCACAAGGAGGUAACUAU [hsa-let-7d]	-0.917	0.236	0.203	0.589	0.112
CUUUCCUUUUUGUCUGUACUGGGAAG [hsa-mir-373]	0.709	-0.365	-1.12	-0.328	-0.709
UAAGUGUCCUAGCACUUA [hsa-mir-374b]	0.214	0.251	-0.647	-0.524	-0.0395
CACACAUACAUAUAUAUAUGUUUG [hsa-mir-3149]	-0.604	0.618	-0.501	0.18	0.379

Sequence	pull-down binding Z-score [1]	pull-down binding Z-score [2]	pull-down binding Z-score [3]	pull-down binding Z-score [4]	pull-down binding Z-score (TO-N3 (biotin conjugate))
GCCGGAGCGGGC [hsa-mir-1181]	1.74	0.493	0.58	0.0808	0.703
UUUUCUUAAAUUGUAUAAAGAGAAAU [hsa-mir-944]	-0.343	-0.406	-0.622	-0.156	-0.741
CCCAUAUGAACAUACAAUGCUAUGGA [hsa-mir-1-2]	-0.76	-0.62	-0.206	-0.224	-0.569
UUGCUCACGGUAAGAAAAACAUGAGUAA [hsa-mir-8062]	0.431	0.553	-0.388	0.384	0.238
AGGCCGUUGCCAAUCAGAGAACGGCUA [hsa-mir-138-1]	-0.677	1.23	1.43	0.52	1.47
GCACCUGUUUGUGAC [hsa-mir-4718]	-1.21	-0.491	-0.201	-0.276	-0.457
CCCACCUCCAGCAUUGGG [hsa-mir-1267]	-0.68	-0.458	-0.466	-0.393	-0.663
GGCUCCUGGCGCUGAUGCC [hsa-mir-6886]	-0.347	0.85	1.15	0.297	1.15
CUGUGCAGAACAUCCGCUCACCUGUACAG [hsa-mir-214]	0.104	0.0427	0.171	-0.43	0.0753
UCCAUGAAAAGAACCCAUGGG [hsa-mir-4471]	-0.734	-0.455	-0.307	0.0519	-0.608
UGAGUGAUGACUCAGGCGACUCCA [hsa-mir-338]	1.31	-0.345	1.51	-0.0635	0.461
UUUUGCUAUUACUUUUAAAGGCAAAA [hsa-mir-548e]	-0.666	0.431	-0.684	0.21	-0.0747
GCUGGGGACUGGAGAA [hsa-mir-4489]	2.08	2.13	1.64	1.32	2.4
UAGGCCCACUGCUCAGUGGAGC [hsa-mir-7847]	0.533	-0.238	0.845	-0.0119	0.139
GUUUUUUAAGAGGAAGGGAGACCUAAGCUAGCA [hsa-mir-4481]	0.269	0.205	0.747	0.475	0.507
CUGCCCCUCGAAUCUGCUCCACGAUUUGGGCAG [hsa-mir-4436a]	0.401	0.0656	-0.521	-0.181	-0.337
CUGUCUGUUGUAUAAAAGAAAAGAUCG [hsa-mir-517a]	-0.46	0.157	1	0.743	0.594
ACACUUCCUAUAUGUAUCCACAUAUAUAUAGU [hsa-mir-568]	0.00925	-0.562	-0.936	-0.0673	-0.69
CUCAGCCUGGAAAAAGCUGAG [hsa-mir-4765]	0.49	-0.454	-0.646	-0.575	-0.672
UCCAGGCAUCUGUGUCUG [hsa-mir-4669]	-0.0379	1.48	0.591	0.402	1.52
GAGGUUGCAGUGAGCCAAGAUCGUG [hsa-mir-4459]	2.18	-0.147	1.33	0.278	0.743
AAGCUGUGUGUGUCCAGC [hsa-mir-4732]	-0.258	0.132	0.52	-0.101	0.33
GCAUAAAAACAACUUUUGGGGGACAGGUAUGUUUUCUUGC [hsa-mir-5047]	0.0757	2.96	0.797	2.38	2.3
CGCCAGCUCGCUGACAGCACGACUCAGGGCG [hsa-mir-658]	0.902	-0.127	1.15	0.383	0.25
